System: MS2 coat protein
Test: apparent KD of MS2 coat protein; designed switch direction (-1 OFF switch, 1 ON switch): -1; higher = weaker reporter binding
Summary of the method: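 Each step of the titration lasted 0.8–1.5 h at the lowest concentration and 10–20 min at the highest. The protein, SNAP-549-labelled MS2 coat protein, went from 0.7 or 1.5 nM doubling to 3 µM over RNA switches transcribed on Illumina chips by stalled E. coli RNA polymerase. Normalised cluster fluorescence was curve-fitted, and the per-design median over clusters is given as apparent KD.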

[1] = Eterna round: R95, input ligand: FMN 200 uM
[2] = Eterna round: R95, input ligand: microRNA oligo, concentration not stated
[3] = Eterna round: R95, input ligand: none
[4] = input ligand: microRNA oligo, concentration not stated

Row | Sequence | apparent KD of MS2 coat protein (input ligand: FMN 200 uM) | apparent KD of MS2 coat protein (input ligand: none) | apparent KD of MS2 coat protein [1] | apparent KD of MS2 coat protein [2] | apparent KD of MS2 coat protein [3] | apparent KD of MS2 coat protein [4]
1 | AACCAACAUGAGGAUCACCCAUGUGAGGAUAUAGCUAACGACCAGACCUGGAAUGUUGUUAGAAGGUGCAGGGU [Eternabot (Original) Solution 4] (Eterna round: R97, puzzle: Exclusion 1) | 44.4 nM | 36.2 nM |  |  |  | 
2 | GACCCAGAUGUAAGGAUAUCGAGCUGCGUCAGGUUCGAGAAGGUACAUGAGGAUCACCCAUGUGCAAGCACUCC [BmEX4 B.18] (Eterna round: R97, puzzle: Brourd's mod of Exclusion 4) | 32.8 nM | 17.4 nM |  |  |  | 
3 | GUUUCACAUGAGGAUCACCCAUGUGAGGAUAUGGAUUCGCUGGCCGUAGCCAGUGGAUCCAGAAGGCGCGUGAU [JL-ex1-4.21] (Eterna round: R97, puzzle: Exclusion 1) | 60.5 nM | 61.7 nM |  |  |  | 
4 | AUCCUACAUGAGGAUCACCCAUGUCAGGAUAUCCAAGAAAUCUGGCCGUAUCGGCCAGGGAGAAGGGACAUGGC [jl-ex1-4.66 ViennaUCT mod] (Eterna round: R97, puzzle: Exclusion 1) | 85.6 nM | 28.4 nM |  |  |  | 
5 | UGAGCUACAGGAUAUACAAGGCGACCGUGAGGUCGAAGGUUACAUGAGGAUCACCCAUGUAGAAGGGUAGUUCU [Mat - Exclusion 2 - JL Mod - D15] (Eterna round: R97, puzzle: Exclusion 2) | 130 nM | 126 nM |  |  |  | 
6 | GGUCAAGAGCAGAUCCGCGCUGCCAUUGACCGCUCAUUUACAUGAGGAUCACCCAUGUUUUUUGCUCGUCUUACUAC [Inedsoinin] (puzzle: Sensor v3, turn-off variant 2) |  |  | 18.2 nM | 57.9 nM | 20.3 nM | 
7 | ACUCUUCCUGUUAGGAUAUGCAUCGGGCUUCCGCAGCAGAAGGAACAUGAGGAUCACCCAUGUCAAAUAAAAUC (Eterna round: R97, puzzle: Brourd's mod of Exclusion 4) | 33.1 nM | 17.4 nM |  |  |  | 
8 | AAAACGUCAGGAUAUCCAAUAUAUGACAUGAGGAUCACCCAUGUUUCCACUCGUACCUCCGGAGAAGGGACUAAUA [Ex5 #84] (Eterna round: R97, puzzle: Exclusion 5) | 34.7 nM | 38.2 nM |  |  |  | 
9 | GGCCCUAAGGUCAGAUUCACAAGCUUUUUGCUCGUUUUAACAUGAGGAUCACCCAUGUCUAGUGGAUUUGAUCCUUU [Sensor v3, turn-off variant 2 (MOD of Indiso v.6)] (puzzle: Sensor v3, turn-off variant 2) |  |  | 28.6 nM | 25.4 nM | 34.2 nM | 
10 | CACGUGAGAGGAUAUACAUGAGGAUCACCCAUGUAUACAGCAGGGUAUGAAGACUUGGGUAGAAGGCUCGCGUG [Eternabot (L2) Solution 39] (Eterna round: R97, puzzle: Exclusion 3) | 173 nM | 270 nM |  |  |  | 
11 | CCGGAAAUGGAGGAUAUAGGAGUCGAUAGACACCUAGAAGGUCAGACAUGAGGAUCACCCAUGUGUCCUACCGG [Fiskers Ex 6 - 88] (puzzle: Exclusion 6) |  |  |  | 14.9 nM |  | 
12 | ACCAUUACCACACCCUCUAUACAUGAGGAUCACCCAUGUUCUGAGGAUAUCAUCGCUCGCCGCGUUGAGAAGGCAGAGCAUUAA [Tiisri] (Eterna round: R96, puzzle: Exclusion NG 3) | 50.8 nM | 15.1 nM |  |  |  | 9.21 nM
13 | UGGUGGUAGCAGGAUAUGCUUGUUGUGUAGUUUGCAGAAGGGCUAACAUGAGGAUCACCCAUGUAAGAGGUGUU [JR_E6_Sub054] (puzzle: Exclusion 6) |  |  |  | 339 nM |  | 
14 | ACAUGUUGCGCAGGAUAUGGGACACAUGAGGAUCACCCAUGUGGCUACAUGUCAUACCAAGCGUCUCAGAAGGGUGUUAACAUG [Ex NG2 #36] (Eterna round: R96, puzzle: Exclusion NG 2) | 20.1 nM | 17.7 nM |  |  |  | 14 nM
15 | AAGUAUAGAGGAUAUAGUAGGUACUACAUGAGGAUCACCCAUGUUCUUCAUUACGUAUUUCUAGAAGGCUGAUAAA [EX-5 Malc#26] (puzzle: Exclusion 5) |  |  | 484 nM | 174 nM | 268 nM | 
16 | UAUUAGCAAGCGAGAUCCCACAUGAGGAUCACCCAUGUAAAGCAUCCAGAAUUACUGGGUGCAAAAGCUCGUCUUAU [Winner reversed engineered 6] (Eterna round: R97, puzzle: Sensor, turn-off variant 1) | 29.4 nM | 31.7 nM |  |  |  | 
17 | AGAUGGAAGCAGGAUAUGCUUGUAUAAUUGAAAGCAGAAGGGCUAACAUGAGGAUCACCCAUGUAAGAGGUGUA [JR_E6_Sub059] (puzzle: Exclusion 6) |  |  | 302 nM | 282 nM | 352 nM | 
18 | CCAGGGCACAAUUAAACGCCCUAACAUGAGGAUCACCCAUGUCAGGAUAUGUAGGCAAAGACCCUACAGAAGGGACAUGUCCUA [Xegeat] (Eterna round: R96, puzzle: Exclusion NG 3) | 217 nM | 49.9 nM |  |  |  | 76.1 nM
19 | GGUUGGCGAGGAUAUACAUGAGGAUCACCCAUGUGAGAGAAAAAAGUGAGGAAGAAAAGUAGAAGGCGUUGACG [salish99_ex3_r3_052] (puzzle: Exclusion 3) |  |  | 66.2 nM | 48.3 nM | 42.8 nM | 
20 | ACGCGUGGCUAGGAUAUGCAGAAAUCUAGCCAGGCAGAAGGAGCCACAUGAGGAUCACCCAUGUGGUGAUCCUC [eternacac ex6r4 sub1] (Eterna round: R97, puzzle: Exclusion 6) | 10.8 nM | 9.98 nM |  |  |  | 
21 | UCAUGUCCAGAGGAUAUGUAGCGGGAGACCGCAACAGAAGGCUGGACAUGAGGAUCACCCAUGUGCGCCUUCGA [jl-ex3-4.27 ViennaUCT mod] (Eterna round: R97, puzzle: Exclusion 6) | 35.9 nM | 113 nM |  |  |  | 
22 | UUCAUGUUAGGAUAUUCCGCCACAGAGAAAGACUGUGGAAUGAAGAAGGGACAUGAGGAUCACCCAUGUUCCAA [EX4 A.5] (Eterna round: R97, puzzle: Exclusion 4) | 14.2 nM | 14.3 nM |  |  |  | 
23 | AACUGGACAGGAUAUGUUCUUGAGCACUUGAGGAUCACCCAAGUCGUCGAGAACUCAGGCACAGAAGGGUUAAUGA [Bera] (Eterna round: R97, puzzle: Exclusion 5) | 35.1 nM | 17.7 nM |  |  |  | 
24 | GUGUGCUGAGGAUAUACAUAGGAAGAGAAGAGAAGAGAAGGACAUGAGGAUCACCCAUGUAGAAGGCAGAGUGU [Excluse me!! 12 - Jieux - Exclusion 2] (puzzle: Exclusion 2) |  |  |  | 24.5 nM |  | 
25 | UGUUGUCGCGUAGGAUAUGCAUGAGGAUCACCCAUGCAAUUAGAGUUAACAUGAGGAUCACCCAUGUAGAAGGACGGGACAACU [pwkr exNG2 2xF5 1xFMN.6] (Eterna round: R96, puzzle: Exclusion NG 2) | 89.2 nM | 54.1 nM |  |  |  | 34.6 nM
